Data: patent publication US20180002415A1 (Chugai, published 2018)

T1: 481-660
T1 construct: Expressed in E. coli
T1 GST fusion polypeptide: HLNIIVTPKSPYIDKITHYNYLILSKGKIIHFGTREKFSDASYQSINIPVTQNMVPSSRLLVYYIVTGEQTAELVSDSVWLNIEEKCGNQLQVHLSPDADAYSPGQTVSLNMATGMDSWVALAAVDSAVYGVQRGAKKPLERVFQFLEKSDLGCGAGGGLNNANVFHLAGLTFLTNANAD

T2: recombinant cynomolgus monkey C5 (cynomolgus monkey, UniProt P01031 20-1676 (human entry), limits assumed)
T2 construct: also called cynoC5
T2 chain: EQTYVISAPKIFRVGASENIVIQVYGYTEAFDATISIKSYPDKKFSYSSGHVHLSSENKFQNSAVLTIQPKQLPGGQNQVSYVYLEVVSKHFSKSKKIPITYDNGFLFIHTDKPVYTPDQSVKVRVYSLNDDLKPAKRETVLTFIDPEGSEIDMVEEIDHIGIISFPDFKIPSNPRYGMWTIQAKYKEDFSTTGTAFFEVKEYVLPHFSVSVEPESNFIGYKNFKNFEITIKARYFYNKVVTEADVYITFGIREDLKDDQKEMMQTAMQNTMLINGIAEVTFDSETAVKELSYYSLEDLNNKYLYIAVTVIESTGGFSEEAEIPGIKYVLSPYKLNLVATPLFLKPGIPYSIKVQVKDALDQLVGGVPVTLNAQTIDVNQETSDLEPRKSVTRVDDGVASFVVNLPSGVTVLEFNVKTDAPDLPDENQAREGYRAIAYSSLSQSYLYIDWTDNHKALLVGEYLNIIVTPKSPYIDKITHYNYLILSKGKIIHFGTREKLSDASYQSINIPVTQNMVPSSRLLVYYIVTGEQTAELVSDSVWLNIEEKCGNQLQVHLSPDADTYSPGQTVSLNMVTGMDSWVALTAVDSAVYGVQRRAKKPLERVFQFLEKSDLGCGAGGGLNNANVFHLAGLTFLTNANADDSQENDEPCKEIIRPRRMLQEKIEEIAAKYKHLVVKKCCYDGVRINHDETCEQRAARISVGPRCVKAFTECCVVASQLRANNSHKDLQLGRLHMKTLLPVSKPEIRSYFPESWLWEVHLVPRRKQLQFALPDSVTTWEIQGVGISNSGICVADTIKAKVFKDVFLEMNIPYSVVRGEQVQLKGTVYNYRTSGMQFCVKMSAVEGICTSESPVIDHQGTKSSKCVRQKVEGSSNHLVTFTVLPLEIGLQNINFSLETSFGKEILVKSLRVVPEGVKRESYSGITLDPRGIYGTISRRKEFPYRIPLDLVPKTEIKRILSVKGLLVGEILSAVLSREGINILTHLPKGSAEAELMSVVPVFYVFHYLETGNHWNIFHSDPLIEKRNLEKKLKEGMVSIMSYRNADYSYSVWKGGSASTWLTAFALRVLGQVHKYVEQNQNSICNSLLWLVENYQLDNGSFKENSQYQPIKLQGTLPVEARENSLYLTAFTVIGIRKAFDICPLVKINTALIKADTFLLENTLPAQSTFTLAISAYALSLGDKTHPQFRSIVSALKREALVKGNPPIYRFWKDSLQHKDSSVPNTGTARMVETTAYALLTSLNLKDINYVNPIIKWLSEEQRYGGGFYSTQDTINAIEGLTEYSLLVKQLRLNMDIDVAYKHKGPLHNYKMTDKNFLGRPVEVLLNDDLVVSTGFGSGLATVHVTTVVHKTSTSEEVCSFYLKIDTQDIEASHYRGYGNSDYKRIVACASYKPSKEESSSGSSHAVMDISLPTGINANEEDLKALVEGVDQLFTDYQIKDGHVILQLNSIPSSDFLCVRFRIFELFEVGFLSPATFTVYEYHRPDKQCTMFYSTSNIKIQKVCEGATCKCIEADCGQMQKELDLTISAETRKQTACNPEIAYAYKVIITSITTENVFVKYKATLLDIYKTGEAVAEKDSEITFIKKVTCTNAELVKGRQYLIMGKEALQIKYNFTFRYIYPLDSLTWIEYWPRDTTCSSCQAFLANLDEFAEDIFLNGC

T3: 161-340
T3 construct: Expressed in E. coli
T3 GST fusion polypeptide: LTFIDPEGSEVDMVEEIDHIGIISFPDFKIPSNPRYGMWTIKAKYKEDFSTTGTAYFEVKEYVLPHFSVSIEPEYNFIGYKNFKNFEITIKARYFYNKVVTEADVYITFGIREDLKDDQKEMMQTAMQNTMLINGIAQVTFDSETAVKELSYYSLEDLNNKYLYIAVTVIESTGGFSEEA

T4: 321-500
T4 construct: Expressed in E. coli
T4 GST fusion polypeptide: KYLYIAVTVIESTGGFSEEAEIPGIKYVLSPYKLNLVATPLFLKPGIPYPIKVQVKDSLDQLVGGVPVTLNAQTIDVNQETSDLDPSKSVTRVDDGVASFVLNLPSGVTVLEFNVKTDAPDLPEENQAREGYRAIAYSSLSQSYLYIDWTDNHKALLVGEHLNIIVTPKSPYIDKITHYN


Tests used:
[1] = biological target: T5, C5 peptide 45-111 fused to GST-tag (human, UniProt P01031 45-111); experiment: summary drawing of the binding reactions to C5 beta-chain fragments
T5 construct: not shown: GST-tag (glutathione S-transferase); vector and linker not restated

[2] = biological target: T6, C5 peptide 33-108 fused to GST-tag (human, UniProt P01031 33-108); experiment: as above
T6 construct: not shown: GST-tag (glutathione S-transferase); vector and linker not restated

[3] = biological target: T7, C5 peptide 52-124 fused to GST-tag (human, UniProt P01031 52-124); experiment: as above
T7 construct: not shown: GST-tag (glutathione S-transferase); vector and linker not restated

[4] = biological target: T8, C5 peptide 33-111 fused to GST-tag (human, UniProt P01031 33-111); experiment: as above
T8 construct: not shown: GST-tag (glutathione S-transferase); vector and linker not restated

[5] = biological target: T9, C5 peptide 45-124 fused to GST-tag (human, UniProt P01031 45-124); experiment: as above
T9 construct: not shown: GST-tag (glutathione S-transferase); vector and linker not restated

481-660 = biological target: T1, 481-660; experiment: as above
[6] = biological target: T2, recombinant cynomolgus monkey C5; experiment: SPR (Biacore), 37C, pH 7.4, Ab captured on ProA/G
Experimental: To observe the cross-reactivity of anti-C5 antibodies against human C5 (hC5) and cynomolgus monkey C5 (cynoC5), BIACORE® kinetics analysis was performed.

161-340 = biological target: T3, 161-340; experiment: Western blot of E. coli lysates expressing GST-fused C5 beta-chain fragments
Experimental: (§1) Anti-C5 monoclonal antibodies (MAbs) were tested for binding to C5 β-chain-derived peptides in Western blot analysis. […] The E. coli samples were harvested after incubation with 1 mM Isopropyl β-D-1-thiogalactopyranoside (IPTG) for 5 hours at 37° C., and centrifuged at 20000×g for 1 min to obtain pellets.

321-500 [7] = biological target: T4, 321-500; experiment: as above
Experimental: as §1

[8] = biological target: recombinant MG1-MG2 domain of human C5 β-chain (human, UniProt P01031 20-225); experiment: SPR (BIACORE T200, 37 C, pH7.4): antibody captured by ProA/G, MG1-MG2 domain injected (20 and 40 nM per paragraph 378; concentration of the curves not printed on the sheet)
Experimental: ProA/G (Pierce) was immobilized onto a CM4 sensorchip using amine coupling kit (GE Healthcare) according to the recommended settings by GE Healthcare. Antibodies and analytes were diluted into the respective running buffers, ACES pH7.4 and pH5.8 (20 mM ACES, 150 mM NaCl, 1.2 mM CaCl₂, 0.05% Tween 20, 0.005% NaN₃). […] The surface was regenerated using 25 mM NaOH. Kinetic parameters at both pH conditions were determined by fitting the sensorgrams with 1:1 binding model using BIACORE® T200 Evaluation software, version 2.0 (GE Healthcare).
The MG1-MG2 domain was injected at concentrations of 20 nM and 40 nM.

321-500 [9] = biological target: T4, 321-500; experiment: summary drawing of the binding reactions to C5 beta-chain fragments
recombinant human C5 [10] = biological target: T10, recombinant human C5 (human, UniProt P01031 20-1676); experiment: SPR (Biacore), 37C, association and dissociation at pH 5.8, Ab on ProA/G
T10 construct: Also used for the C5 of normal human serum in the functional rows; also called hC5; rhC5
Experimental: (§2) The kinetic parameters of anti-C5 antibodies against recombinant human C5 were assessed at 37° C. using BIACORE® T200 instrument (GE Healthcare) at three different conditions; (1) both association and dissociation were at pH7.4, (2) both association and dissociation were at pH5.8, and (3) association was at pH7.4 but dissociation was at pH5.8. ProA/G (Pierce) was immobilized onto a CM1 sensorchip using amine coupling kit (GE Healthcare) according to the recommended settings by GE Healthcare. Antibodies and analytes for condition (1) and (3) were diluted in ACES pH7.4 buffer (20 mM ACES, 150 mM NaCl, 1.2 mM CaCl₂, 0.05% Tween 20, 0.005% NaN₃) and for condition (2) they were diluted in ACES pH5.8 buffer (20 mM ACES, 150 mM NaCl, 1.2 mM CaCl₂, 0.05% Tween 20, 0.005% NaN₃). […] The surface was regenerated using 25 mM NaOH. Kinetic parameters at condition (1) and (2) were determined by fitting the sensorgrams with a 1:1 binding model and the dissociation rate at condition (3) was determined by fitting the sensorgrams with a 1:1 dissociation for MCK model using BIACORE® T200 Evaluation software, version 2.0 (GE Healthcare). pH dependency of all antibodies were shown as ratio of dissociation rate of condition (2) and (1).

recombinant human C5 [11] = biological target: T10, recombinant human C5; experiment: SPR (Biacore), 37C, association and dissociation at pH 7.4, Ab on ProA/G
Experimental: as §2

recombinant human C5 [12] = biological target: T10, recombinant human C5; experiment: SPR (Biacore), 37C, association at pH 7.4, dissociation at pH 5.8
Experimental: as §2

recombinant human C5 [13] = biological target: T10, recombinant human C5; experiment: SPR (Biacore), ratio of dissociation rates of conditions (2) and (1)
Experimental: as §2

T5 sequence (P01031 45-111): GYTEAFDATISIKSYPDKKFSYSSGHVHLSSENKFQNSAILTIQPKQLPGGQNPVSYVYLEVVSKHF
T9 sequence (P01031 45-124): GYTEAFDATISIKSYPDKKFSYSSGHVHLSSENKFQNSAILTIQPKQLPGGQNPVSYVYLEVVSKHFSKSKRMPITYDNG
T8 sequence (P01031 33-111): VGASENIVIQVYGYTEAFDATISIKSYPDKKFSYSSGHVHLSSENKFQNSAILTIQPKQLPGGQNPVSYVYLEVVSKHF
T6 sequence (P01031 33-108): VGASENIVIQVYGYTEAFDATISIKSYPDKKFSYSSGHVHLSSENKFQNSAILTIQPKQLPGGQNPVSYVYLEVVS
T7 sequence (P01031 52-124): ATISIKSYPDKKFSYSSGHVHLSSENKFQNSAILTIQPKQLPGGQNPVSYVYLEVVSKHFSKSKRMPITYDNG

Binder	binding result [1]	binding result [2]	binding result [3]	binding result [4]	binding result [5]	binding result (481-660)	Kd [6] [nM]	binding result (161-340)	binding result (321-500 [7])	binding result [8]	binding result (321-500 [9])	koff (recombinant human C5 [10]) [s⁻¹]	kon (recombinant human C5 [10]) [M⁻¹ s⁻¹]	koff (recombinant human C5 [11]) [s⁻¹]	kon (recombinant human C5 [11]) [M⁻¹ s⁻¹]	koff (recombinant human C5 [12]) [s⁻¹]	pH dependency (kd pH 5.8 / kd pH 7.4) (recombinant human C5 [13]) [fold]
CFA0675 (antibody, V domains shown, Chimeric, rabbit V regions; also called CFA0675-F760G4) VH: QSVEESGGRLVTPGTPLTLTCTVSGFSLSTYAMGWVRQAPGKGLEWIGTIDTGDNSFYANWAKGRFTISRTSTTVDLKITSPTAEDTATYFCARNDGSVYNLFNLWGPGTLVTVSS VL: DVVMTQTPASVSAAVGGTVTIKCQASENIYSALSWYQQKPGLRPRLLIYYASTLASGVPSRFKGSRSGTEFTLTISDLECADAASYYCQQYYDINSVDNTFGGGTKVVVE	no binding	no binding	no binding	no binding	no binding	no binding	1.29	no binding	no binding	–	–	–	–	–	–	–	–
eculizumab-F760G4 (antibody, human IgG4 S228P, kappa, EcuH VH fused to modified human IgG4 CH F760G4; EcuL VL fused to k0 light chain constant region) heavy: not shown light: DIQMTQSPSSLSASVGDRVTITCGASENIYGALNWYQQKPGKAPKLLIYGATNLADGVPSRFSGSGSGTDFTLTISSLQPEDFATYYCQNVLNTPLTFGQGTKVEIKRTVAAPSVFIFPPSDEQLKSGTASVVCLLNNFYPREAKVQWKVDNALQSGNSQESVTEQDSKDSTYSLSSTLTLSKADYEKHKVYACEVTHQGLSSPVTKSFNRGEC	–	–	–	–	–	–	–	–	–	no binding (tested: 40 nM (not printed on the sheet))	–	–	–	–	–	–	–
CFA0307 (antibody, V domains shown, Chimeric, rabbit V regions; also called CFA0307-F760G4) VH: QSLEESGGGLVKPGASLTLTCKASGIDFSNFYYICWVRQAPGKGLDLIACIYTVSGYTYYASWAKGRLTISKTSSTTVTLQMTSLTAADTATYFCARDLHAGITNLWGPGTLVTVSS VL: AIEMTQTPFSVSAAVGGTVTIKCQASQNIYSNLAWYQQKPGQRPKLLIYGASNLESGVPSRFKGSGSGTEYTLTISDLECADAATYYCLQGYSYSNVDDAFGGGTEVVVK	no binding	no binding	no binding	no binding	no binding	no binding	7.68	no binding	–	–	no binding	–	–	–	–	–	–
305LO20-SG422 (antibody, human IgG4, Modified human IgG4 CH SG422, human CL SK1) heavy: QVQLVESGGGLVQPGGSLRLSCAASGFTVHSSYYMAWVRQAPGKGLEWVGAIFTGSGAEYKAEWAKGRVTISKDTSKNQVVLTMTNMDPVDTATYYCASDAGYDYPTHAMHYWGQGTLVTVSSASTKGPSVFPLAPCSRSTSGGTAALGCLVKDYFPEPVTVSWNSGALTSGVHTFPAVLQSSGLYSLSSVVTVPSSSLGTKTYTCNVDHKPSNTKVDKRVESKYGPPCPPCPAPEFRRGPKVFLFPPKPKDTLMISRTPEVTCVVVDVSHEDPEVKFNWYVDGVEVHNAKTKPREEQYNSTYRVVSVLTVLHQDWLNGKEYKCKVSNKGLPSSIEKTISKAKGQPREPQVYTLPPSREEMTKNQVSLTCLVKGFYPSDIAVEWESNGQPENNYKTTPPVLDSDGSFFLYSKLTVDKSRWQQGNVFSCSVLHEALHAHYTRKELSLSP light: DIQMTQSPSSLSASVGDRVTITCRASQGISSSLAWYQQKPGQAPRLLIYGASETESGVPSRFSGSGSGTDFTLTISSLQPEDFATYYCQNTKVGSSYGNTFGGGTKVEIKRTVAAPSVFIFPPSDEQLKSGTASVVCLLNNFYPREAKVQWKVDNALQSGNSQESVTEQDSKDSTYSLSSTLTLSKADYEKHKVYACEVTHQGLSSPVTKSFNRGEC	–	–	–	–	–	–	–	–	–	–	–	0.00815	136000	0.00047	1.35e+06	0.0155	17.3
